Changes are numbered by the printed parent chain.
Key:
shed CEA (soluble CEA) = biological target: T1, shed CEA (soluble CEA) (human, UniProt P06731 35-685, limits assumed); assay: cell-based or functional assay
T1 sequence (looked up): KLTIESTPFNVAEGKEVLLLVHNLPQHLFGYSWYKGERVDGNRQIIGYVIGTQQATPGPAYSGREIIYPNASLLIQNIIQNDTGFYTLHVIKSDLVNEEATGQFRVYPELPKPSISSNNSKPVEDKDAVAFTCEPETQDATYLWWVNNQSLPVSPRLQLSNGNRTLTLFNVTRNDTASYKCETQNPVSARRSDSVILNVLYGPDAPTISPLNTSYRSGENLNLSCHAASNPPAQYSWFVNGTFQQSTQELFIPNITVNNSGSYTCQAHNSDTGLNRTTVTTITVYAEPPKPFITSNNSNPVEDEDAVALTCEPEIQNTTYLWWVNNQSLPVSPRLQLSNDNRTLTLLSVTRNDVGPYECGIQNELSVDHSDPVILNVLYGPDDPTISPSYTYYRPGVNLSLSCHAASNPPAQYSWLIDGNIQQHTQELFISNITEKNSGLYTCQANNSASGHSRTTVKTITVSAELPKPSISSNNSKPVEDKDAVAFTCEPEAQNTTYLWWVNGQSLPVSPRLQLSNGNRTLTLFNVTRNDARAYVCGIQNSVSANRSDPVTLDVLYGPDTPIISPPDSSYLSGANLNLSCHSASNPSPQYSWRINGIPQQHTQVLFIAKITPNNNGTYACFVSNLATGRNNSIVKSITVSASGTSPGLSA

human CEACAM6 = biological target: T2, human CEACAM6 (human, UniProt P40199 35-320); assay: statement in the legend of FIG. 21A (FACS on MKN-45 cells)
T2 construct: also called CD66c; biotinylated recombinant human CEACAM6
T2 sequence (looked up): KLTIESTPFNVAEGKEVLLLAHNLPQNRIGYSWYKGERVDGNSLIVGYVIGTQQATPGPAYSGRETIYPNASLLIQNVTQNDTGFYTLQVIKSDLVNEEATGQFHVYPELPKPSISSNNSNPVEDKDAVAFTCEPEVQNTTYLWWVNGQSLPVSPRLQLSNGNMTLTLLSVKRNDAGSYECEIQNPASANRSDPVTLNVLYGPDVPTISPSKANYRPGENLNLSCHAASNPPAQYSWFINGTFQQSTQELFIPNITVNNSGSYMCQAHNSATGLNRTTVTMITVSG

[1] = biological target: T3, human CEACAM5 on MKN-45 cells (human, UniProt P06731 35-685); assay: binding to MKN-45 cells (MFI), without shed CEA
T3 construct: Endogenous CEACAM5 on MKN-45 gastric adenocarcinoma cells, which also carry CD47 (and CEACAM6); also called CD66e; MKN45 CEA+ cancer cells
T3 sequence: T1 sequence (looked up) with E364K

[2] = biological target: T3, human CEACAM5 on MKN-45 cells; assay: flow cytometry on MKN45 CEA+ cells (carry CEACAM5 and CD47)
[3] = biological target: T4, human CD47 on MKN45 cells (human, UniProt Q08722 19-323); assay: inhibition of SIRPα-mouseFc binding to CD47 on MKN45 cells, imaging (CX5)
T4 construct: whole, on cells; also called IAP
Excerpt: The detection of bound SIRPα cell-based assay monitoring the interaction of soluble SIRPα with human CD47 expressed at the surface of MKN45 is used for the detection of the blocking activity. Dose-response experiments with bispecific antibodies according to the invention allow determination of an IC50 value.
MKN45 cancer cells, expressing both CD47 and CEACAM5, are stained with CFSE violet to allow the imaging system (CX5) to detect the cells. Briefly, 3,000 stained MKN45 cells per well are seeded in a 384 optical well plate (Costar) and incubated for 50 minutes with increased concentrations of bispecific antibodies of the invention (1.9 pM to 333 nM, in quadruplicates). Then, a fixe concentration of SIRPα-mouseFc premixed with anti-mouse IgG-Fc AF647 coupled antibody (Jackson Immunoresearch diluted 1:2000) is added at 50 ng/mL final. After an incubation of 3H30 plates are acquired with the imaging system (CX5, Thermofisher) and fluorescence signals emitted by the detected bound SIRPα is recorded by the software dedicated to the imaging system. Fluorescence signals are plotted according to the dose range tested and IC50 are calculated by the software (Prism, Graphpad).

[4] = biological target: T3, human CEACAM5 on MKN-45 cells; assay: FACS binding to MKN-45 cells, which express CD47, CEACAM5 and CEACAM6
[5] = biological target: T3, human CEACAM5 on MKN-45 cells; assay: binding to MKN-45 cells (MFI), in the presence of 200 ng/mL shed CEA

B1: K2AC22 CEA×CD47 bispecific antibody (bispecific antibody, human IgG1, kappa, lambda)
heavy: not shown
light 1: QSVLTQPPSVSAAPGQKVTISCSGSSSNIANGIVSWYQQLPGTAPKLLIYFDNLRPSGIPDRFSGSKSGTSATLGITGLQTGDEADYYCGTWDFSYGIVFGGGTKLTVLGQPKAAPSVTLFPPSSEELQANKATLVCLISDFYPGAVTVAWKADSSPVKAGVETTTPSKQSNNKYAASSYLSLTPEQWKSHRSYSCQVTHEGSTVEKTVAPTECS
light 2: not shown
notes: κλ body, human IgG1, common heavy chain; CEACAM5 arm light chain 1G6 (AC22)
Shed CEA (soluble CEA)
  shift of EC50 of the phagocytosis index curve of MKN-45 cells by 200 ng/mL shed CEA: < 4 fold
Human CEACAM6
  binding result: no binding
[1]
  EC50 (read off the curve): ~0.5 µg/mL
[2]
  EC50: 16.5 nM
[3]
  IC50: 0.37 nM
[4]
  EC50 (read off the curve): ~1 µg/mL
[5]
  EC50 (read off the curve): ~0.5 µg/mL

Source: patent US20200123252A1 (LAMKAP BIO BETA, published 2020)
